In data set [1] the target is T1, XtrLin28b CSD (Xenopus tropicalis, UniProt B4F6I0 27-114).
T1 sequence: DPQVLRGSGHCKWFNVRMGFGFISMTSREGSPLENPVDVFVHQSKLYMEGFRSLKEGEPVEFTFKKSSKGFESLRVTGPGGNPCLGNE
The experiment in a line: ITC. For orientation: Isothermal titration calorimetry measures the heat released or taken up as one component is titrated into another.

For data set [2], the target named is T1, XtrLin28b CSD. The experiment in a line: Trp fluorescence titration.
Data set [3] deals with T2, XtrLin28b ZKD (Xenopus tropicalis, UniProt B4F6I0 125-175).
T2 sequence: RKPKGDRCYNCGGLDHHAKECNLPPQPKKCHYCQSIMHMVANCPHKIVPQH
Description: ITC.

Data set [4] addresses T3, XtrLin28b CSD W39A (Xenopus tropicalis, UniProt B4F6I0 27-114, W39A).
T3 sequence: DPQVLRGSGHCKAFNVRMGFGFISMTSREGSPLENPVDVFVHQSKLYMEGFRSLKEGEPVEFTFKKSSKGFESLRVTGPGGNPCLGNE
Description: ITC.

The target in data set [5] is T4, XtrLin28b CSD F77A (Xenopus tropicalis, UniProt B4F6I0 27-114, F77A).
T4 sequence: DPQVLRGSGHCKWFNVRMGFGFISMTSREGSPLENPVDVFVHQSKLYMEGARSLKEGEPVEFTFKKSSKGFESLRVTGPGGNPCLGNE
The experiment in a line: ITC.

The target of data set [6] is T5, XtrLin28b CSD H68A (Xenopus tropicalis, UniProt B4F6I0 27-114, H68A).
T5 sequence: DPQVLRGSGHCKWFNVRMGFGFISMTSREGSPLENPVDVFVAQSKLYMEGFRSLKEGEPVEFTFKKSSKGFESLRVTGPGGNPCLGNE
The experiment in a line: ITC.

The target in data set [7] is T6, XtrLin28b CSD F48A (Xenopus tropicalis, UniProt B4F6I0 27-114, F48A).
T6 sequence: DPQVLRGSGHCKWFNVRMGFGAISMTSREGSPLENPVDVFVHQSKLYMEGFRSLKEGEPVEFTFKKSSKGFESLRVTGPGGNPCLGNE
The experiment in a line: ITC.

Data set [8] addresses T7, XtrLin28b CSD F66A (Xenopus tropicalis, UniProt B4F6I0 27-114, F66A).
T7 sequence: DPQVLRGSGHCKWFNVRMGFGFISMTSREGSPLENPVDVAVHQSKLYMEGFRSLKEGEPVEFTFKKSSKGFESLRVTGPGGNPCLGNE
Description: ITC.

As a reminder, the Kd is the concentration at which binding is half-saturated.

GUCAUAC (ssRNA) [rlet-7f1] showed a dissociation constant (Kd) in data set [1] of 13 ± 2 nM.

As to GAAAAAA (ssRNA) [rGA6], in data set [1], the binding result is listed as “no binding”. In the case of TCTTTTT (ssDNA) [dC2], the dissociation constant (Kd) in data set [2] was found to be 137 ± 22 nM. In turn, GACAAAC (ssRNA) [rlet-7f3] returned a Kd in data set [1] of 1360 ± 600 nM. As for AAGGAAAA (ssRNA) [rZ6], the binding result in data set [3] is recorded as “no binding”. Molecule TTCTTTT (ssDNA) [dC3] gave a dissociation constant (Kd) in data set [2] of 71 ± 3 nM. AAAGAGAA (ssRNA) [rZ3] returned a dissociation constant (Kd) in data set [3] of 200 ± 30 nM. In data set [2], CTTTTTT (ssDNA) [dC1] gave an equilibrium dissociation constant (Kd) of 45 ± 4 nM. For AAGGGGAA (ssRNA) [rZ8], the binding result in data set [3] is given as “no binding”.

Molecule AAGAAGAA (ssRNA) [rZ4] yielded an equilibrium dissociation constant (Kd) in data set [3] of 600 ± 170 nM. In the case of GTTTTTT (ssDNA) [dG1], the dissociation constant Kd in data set [2] was determined as 12 ± 1 nM. For the molecule GUCACACC (ssRNA) [rlet-7f5], the equilibrium dissociation constant (Kd) in data set [4] was 1130 ± 110 nM; in data set [1] it was 18 ± 2 nM; in data set [5] it was 1180 ± 60 nM; in data set [6], 540 ± 50 nM; in data set [7], 1610 ± 340 nM; in data set [8], 1440 ± 200 nM. GUCAAAC (ssRNA) [rlet-7f2] registered a Kd in data set [1] of 54 ± 9 nM.

GGUCACAC (ssRNA) [rlet-7f4] had a Kd in data set [1] of 66 ± 9 nM. TTTTTTC (ssDNA) [dC7] gave an equilibrium dissociation constant (Kd) in data set [2] of 59 ± 4 nM. As to AAAAAAA (ssDNA) [dA7 (heptaadenosine)], in data set [2], the binding result is recorded as “no binding”. Molecule TTTTCTT (ssDNA) [dC5] registered a Kd in data set [2] of 154 ± 26 nM. With GGGGGGG (ssDNA) [dG7 (heptaguanosine)], the binding result in data set [2] was “no binding”. Consider TTTTATT (ssDNA) [dA5], for which, in data set [2], the Kd turned out to be 176 ± 8 nM.

In the case of AAGGUGAA (ssRNA) [rZ2], the dissociation constant Kd in data set [3] came to 32 ± 2 nM.

In the case of TTTCTTT (ssDNA) [dC4], binding in data set [2] was put at a Kd of 73 ± 6 nM.

TTTTTT (ssDNA) [dT6]: the Kd in data set [2] was 169 ± 30 nM. TTTTTTA (ssDNA) [dA7 (position 7)] registered an equilibrium dissociation constant (Kd) in data set [2] of 113 ± 15 nM.

With TGTTTTT (ssDNA) [dG2], in data set [2], the Kd turned out to be 39 ± 4 nM. Compared with the last molecule, the Kd is about 2.9-fold lower.

On to GGUCACACC (ssRNA) [rlet-7f6], for which the Kd in data set [1] was 21 ± 4 nM. In data set [1], GUCACAC (ssRNA) [rlet-7f (rlet-7f0)] gave a Kd of 46 ± 3 nM. TTTTT (ssDNA) [dT5] yielded a Kd in data set [2] of 680 ± 40 nM. On to TTTATTT (ssDNA) [dA4], for which binding in data set [2] was put at a Kd of 124 ± 12 nM.

TTTTTTTTT (ssDNA) [dT9]: binding in data set [2] was put at a Kd of 44 ± 3 nM. AAAAAAAA (ssRNA) [rA8]: the binding result in data set [3] is recorded as “no binding”. TTATTTT (ssDNA) [dA3] gave a Kd in data set [2] of 137 ± 10 nM. On to TTTTTAT (ssDNA) [dA6], for which, in data set [2], the dissociation constant (Kd) worked out at 147 ± 15 nM. Regarding TTTTTTTT (ssDNA) [dT8], the Kd in data set [2] worked out at 32 ± 1 nM. As for TTTGTTT (ssDNA) [dG4], the Kd in data set [2] stood at 119 ± 16 nM.

On to TTTTTCT (ssDNA) [dC6], for which binding in data set [2] was characterised by a dissociation constant (Kd) of 87 ± 14 nM. Still for that read-out and setting: in the case of ATTTTTT (ssDNA) [dA1] it was 84 ± 5 nM. Turning to GUUUUUU (ssRNA) [rG1], the dissociation constant (Kd) in data set [1] was 35 ± 2 nM. The molecule GUCUUUU (ssRNA) [rG1b] gave a Kd in data set [1] of 27 ± 3 nM. Consider TTTTGTT (ssDNA) [dG5], for which the dissociation constant Kd in data set [2] was 45 ± 4 nM.

In data set [2], TTGTTTT (ssDNA) [dG3] had a dissociation constant Kd of 139 ± 8 nM. This Kd is about 3.1-fold higher than that of the molecule before.

As for TTTTTGT (ssDNA) [dG6], binding in data set [2] was put at a Kd of 81 ± 10 nM. Consider UUUUUUU (ssRNA) [rU7], for which the binding result in data set [3] is given as “no binding”. In data set [1], this molecule yielded a Kd of 530 ± 65 nM. In data set [3], AAAGAAAA (ssRNA) [rZ7] displayed a Kd of 6800 ± 2100 nM. In data set [2], TATTTTT (ssDNA) [dA2] had an equilibrium dissociation constant (Kd) of 311 ± 24 nM.

Molecule TTTTTTT (ssDNA) [dT7] came in with a Kd in data set [2] of 59 ± 5 nM.

On to TTTTTTG (ssDNA) [dG7 (position 7)], for which the Kd in data set [2] came to 80 ± 10 nM.

Source of the values: publication PMC3424542.
